B1: Lysine-specific demethylase 3A (Homo sapiens), Q9Y4C1 (parent)
chain: MVLTLGESWPVLVGRRFLSLSAADGSDGSHDSWDVERVAEWPWLSGTIRAVSHTDVTKKDLKVCVEFDGESWRKRRWIEVYSLLRRAFLVEHNLVLAERKSPEISERIVQWPAITYKPLLDKAGLGSITSVRFLGDQQRVFLSKDLLKPIQDVNSLRLSLTDNQIVSKEFQALIVKHLDESHLLKGDKNLVGSEVKIYSLDPSTQWFSATVINGNPASKTLQVNCEEIPALKIVDPSLIHVEVVHDNLVTCGNSARIGAVKRKSSENNGTLVSKQAKSCSEASPSMCPVQSVPTTVFKEILLGCTAATPPSKDPRQQSTPQAANSPPNLGAKIPQGCHKQSLPEEISSCLNTKSEALRTKPDVCKAGLLSKSSQIGTGDLKILTEPKGSCTQPKTNTDQENRLESVPQALTGLPKECLPTKASSKAELEIANPPELQKHLEHAPSPSDVSNAPEVKAGVNSDSPNNCSGKKVEPSALACRSQNLKESSVKVDNESCCSRSNNKIQNAPSRKSVLTDPAKLKKLQQSGEAFVQDDSCVNIVAQLPKCRECRLDSLRKDKEQQKDSPVFCRFFHFRRLQFNKHGVLRVEGFLTPNKYDNEAIGLWLPLTKNVVGIDLDTAKYILANIGDHFCQMVISEKEAMSTIEPHRQVAWKRAVKGVREMCDVCDTTIFNLHWVCPRCGFGVCVDCYRMKRKNCQQGAAYKTFSWLKCVKSQIHEPENLMPTQIIPGKALYDVGDIVHSVRAKWGIKANCPCSNRQFKLFSKPASKEDLKQTSLAGEKPTLGAVLQQNPSVLEPAAVGGEAASKPAGSMKPACPASTSPLNWLADLTSGNVNKENKEKQPTMPILKNEIKCLPPLPPLSKSSTVLHTFNSTILTPVSNNNSGFLRNLLNSSTGKTENGLKNTPKILDDIFASLVQNKTTSDLSKRPQGLTIKPSILGFDTPHYWLCDNRLLCLQDPNNKSNWNVFRECWKQGQPVMVSGVHHKLNSELWKPESFRKEFGEQEVDLVNCRTNEIITGATVGDFWDGFEDVPNRLKNEKEPMVLKLKDWPPGEDFRDMMPSRFDDLMANIPLPEYTRRDGKLNLASRLPNYFVRPDLGPKMYNAYGLITPEDRKYGTTNLHLDVSDAANVMVYVGIPKGQCEQEEEVLKTIQDGDSDELTIKRFIEGKEKPGALWHIYAAKDTEKIREFLKKVSEEQGQENPADHDPIHDQSWYLDRSLRKRLHQEYGVQGWAIVQFLGDVVFIPAGAPHQVHNLYSCIKVAEDFVSPEHVKHCFWLTQEFRYLSQTHTNHEDKLQVKNVIYHAVKDAVAMLKASESSFGKP

Variants of: B1
Details: with STAT1, P42224-1
Chain of STAT1, P42224-1 (P42224 whole entry): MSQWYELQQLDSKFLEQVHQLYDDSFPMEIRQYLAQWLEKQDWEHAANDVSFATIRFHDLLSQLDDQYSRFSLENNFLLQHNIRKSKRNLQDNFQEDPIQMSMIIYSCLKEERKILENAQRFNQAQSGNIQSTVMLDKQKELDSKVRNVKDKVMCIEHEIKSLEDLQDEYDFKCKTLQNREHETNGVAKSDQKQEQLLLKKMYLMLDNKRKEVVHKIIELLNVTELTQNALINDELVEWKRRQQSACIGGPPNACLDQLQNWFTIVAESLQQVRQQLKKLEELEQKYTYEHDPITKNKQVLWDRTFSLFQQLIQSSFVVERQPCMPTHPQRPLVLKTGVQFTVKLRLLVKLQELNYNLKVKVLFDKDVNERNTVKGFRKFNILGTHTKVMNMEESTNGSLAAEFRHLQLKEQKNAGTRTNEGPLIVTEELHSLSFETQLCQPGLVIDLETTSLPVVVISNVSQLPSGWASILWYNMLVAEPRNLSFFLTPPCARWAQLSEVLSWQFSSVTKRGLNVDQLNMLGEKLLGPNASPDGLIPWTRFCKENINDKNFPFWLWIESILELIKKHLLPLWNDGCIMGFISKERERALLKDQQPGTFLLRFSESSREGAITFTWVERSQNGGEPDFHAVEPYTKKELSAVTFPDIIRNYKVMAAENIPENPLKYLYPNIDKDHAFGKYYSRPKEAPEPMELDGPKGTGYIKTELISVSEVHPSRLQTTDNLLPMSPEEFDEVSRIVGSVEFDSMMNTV

Variant	effect of a mutation on the interaction
S264A	disrupting interaction strength

From IntAct's records for PubMed 25535969
